Measurements taken from patent publication US20250313632A1.
Numbering of substitutions follows the chain as printed. Each block holds one molecule with its values, some of them ahead of it.

How the values were obtained:
[1] = biological target: human B7-H3 expressed on A375 tumor cells (human) (UniProt Q5ZPR3); assay: flow cytometry on A375 cells, MFI(PE); unit from the axis Conc(nM); fit value of a flat control curve
[2] = biological target: human B7-H3 expressed on A375 tumor cells (human) (UniProt Q5ZPR3); assay: flow cytometry on A375 cells, MFI(PE); unit from the axis Conc (nM); fit value of a flat control curve
[3] = biological target: human B7-H3 expressed on A375 tumor cells (human) (UniProt Q5ZPR3); assay: flow cytometry on A375 cells, MFI(PE); unit from the axis Conc (nM)
[4] = biological target: human B7-H3 expressed on A375 tumor cells (human) (UniProt Q5ZPR3); assay: flow cytometry on A375.S2 cells, MFI(647); unit from the axis Conc (nM)
[5] = biological target: human B7-H3 expressed on A375 tumor cells (human) (UniProt Q5ZPR3); assay: flow cytometry on A375 cells, MFI(PE); unit from the axis Conc (nM); remark: listed apart in the source
[6] = biological target: human B7-H3 expressed on A375 tumor cells (human) (UniProt Q5ZPR3); assay: as above; remark: listed apart in the source
[7] = biological target: human B7-H3 protein (human) (UniProt Q5ZPR3); assay: Octet (BLI) epitope binning on captured human B7-H3; competitor AHP05562
[8] = biological target: human B7-H3 expressed on A375 tumor cells (human) (UniProt Q5ZPR3); assay: flow cytometry on A375 cells, MFI(PE); unit from the axis Conc (nM); remark: listed apart in the source
[9] = biological target: human B7-H3 protein (human) (UniProt Q5ZPR3); assay: Octet (BLI) epitope binning on captured human B7-H3; competitor 72D1D11
[10] = biological target: human B7-H3 expressed on A375 tumor cells (human) (UniProt Q5ZPR3); assay: flow cytometry on A375 cells, MFI(647); unit from the axis Conc (nM)
[11] = biological target: human B7-H3 expressed on A375 tumor cells (human) (UniProt Q5ZPR3); assay: flow cytometry on A375 cells, MFI(PE); unit from the axis Conc (nM); remark: listed apart in the source
[12] = biological target: human B7-H3 protein (human) (UniProt Q5ZPR3); assay: Octet (BLI) epitope binning on captured human B7-H3; competitor CA84D
[13] = biological target: human B7-H3 (4Ig) protein (his tag) (human) (UniProt Q5ZPR3); assay: SPR (Biacore T200), antibody captured on Protein A chip, B7-H3 injected, 1:1 model
[14] = biological target: human B7-H3 expressed on A375 tumor cells (human) (UniProt Q5ZPR3); assay: flow cytometry on A375 cells, MFI(PE); unit from the axis Conc (nM); remark: listed apart in the source
[15] = biological target: human B7-H3 expressed on A375 tumor cells (human) (UniProt Q5ZPR3); assay: flow cytometry on A375 cells, MFI(PE); unit from the axis Conc(nM)
[16] = biological target: human B7-H3 protein (human) (UniProt Q5ZPR3); assay: Octet (BLI) epitope binning on captured human B7-H3; competitor AHP06345
[17] = biological target: human B7-H3 expressed on A375 tumor cells (human) (UniProt Q5ZPR3); assay: flow cytometry on A375 cells, MFI(647); unit from the axis Conc (nM); fit value of a flat curve

B9: 72D1D11-z12 (antibody, V domains shown)
VH: QVQLVQSGSELKKPGASVKVSCKASGYTFTNLGLNWVRQAPGQGLKWMGWINTAGGQPTYAEDFKGRCVFSLDTSVSTAYLQISSLKAEDTAVYFCARDDGYYYTMDYWGQGTTVTVSS
VL: DIVMTQSPLSLPVTPGEPASISCRSSQSLVHSNGKTYLHWYLQKPGQSPQLLIYKVSNRFSGVPDRFSGSGSGTDFTLKISRVEAEDVGVYFCSQSTHVPWTFGGGTKLEIK
EC50 [8]: 0.00035 µM

B10: 72D1D11-p2 (antibody, V domains shown)
VH: QIQLVQSGPELKKPGETVKISCKASGYTFTNLGLNWVKQAPGKGLKWMGWINTAGGQPTYAEDFKGRCAFSLETSASTAYLQINNLKNEDTATYFCARDDGYYYTMDYWGQGTSVTVSS
VL: B9 VL with S7T, T14S, P15L, E17D, P18Q, N33Q, Q50K, V88L
EC50 [11]: 0.00054 µM

B11: 72D1D11-p1 (antibody, V domains shown)
VH: B10 VH
VL: B9 VL with S7T, T14S, P15L, E17D, P18Q, G34A, Q50K, V88L
EC50 [11]: 0.00049 µM

B12: 72D1D11-z8 (antibody, V domains shown)
VH: B9 VH with K46E, F95Y
VL: B9 VL
EC50 [6]: 0.00046 µM

B15: 72D1D11-z3 (antibody, V domains shown)
VH: B9 VH with K46E, C68F, F95Y
VL: B9 VL with F92Y
EC50 [6]: 0.00058 µM | EC50 [10]: 0.00064 µM | EC50 [14]: 0.0004 µM

B16: 72D1D11-z9 (antibody, V domains shown)
VH: B9 VH
VL: B9 VL with S7T, F92Y
EC50 [8]: 0.00051 µM

B18: 72D1D11-z3p8 (antibody, V domains shown)
VH: B9 VH with K46E, C68F, F95Y, D100A
VL: B9 VL with G34A, F92Y
EC50 [17]: 22.4 µM

B19: 72D1D11-z3p6 (antibody, V domains shown)
VH: B9 VH with K46E, C68F, F95Y, D100R
VL: B9 VL with G34A, F92Y
EC50 [17]: 20.9 µM

B21: 72D1D11-z3p7 (antibody, V domains shown)
VH: B9 VH with K46E, C68F, F95Y, D100L
VL: B9 VL with G34A, F92Y
EC50 [17]: 115 µM

B22: 72D1D11-z11 (antibody, V domains shown)
VH: B9 VH
VL: B9 VL with F92Y
EC50 [8]: 0.00036 µM

Continued, values first:

EC50 [1]: 0.014 µM | EC50 [2]: 1970 µM
Molecule: hIgG (antibody)

EC50 [3]: 0.00023 µM
B1: 81C8A1-z3 (antibody, V domains shown)
VH: QVTLKESGPALVKPTQTLTLTCTFSGFSLSTSGMGVSWIRQPPGKALEWLAHIYWDDDRRYNPSLKSRLTISKDTSKNQVVLTMTNMDPVDTATYYCARSPYGSEAYWGQGTLVTVSS
VL: EIVLTQSPDFQSVTPKEKVTITCRASSSVSFIQWYQQKPDQSPKPWIYSPSNLASGVPSRFSGSGSGTDFTLTINSLEAEDAATYYCQQWSSYPWTFGQGTKVEIK

EC50 [3]: 0.00039 µM
B2: 81C8A1-z7 (antibody, V domains shown)
VH: B1 VH with K73R
VL: B1 VL

EC50 [3]: 0.00025 µM
B3: 81C8A1-z8 (antibody, V domains shown)
VH: B1 VH with K73R
VL: B1 VL with T5S, F70Y

EC50 [3]: 0.00028 µM
B4: 81C8A1-z4 (antibody, V domains shown)
VH: B1 VH
VL: B1 VL with T5S, F70Y

EC50 [4]: 0.00037 µM | EC50 [5]: 0.00028 µM | EC50 [3]: 0.00026 µM | EC50 [6]: 0.0003 µM | inhibition ratio [7]: 91.5% | EC50 [8]: 0.00019 µM | inhibition ratio [9]: 98.9% | EC50 [10]: 0.00041 µM | EC50 [11]: 0.00034 µM | inhibition ratio [12]: 3.65% | Kd [13]: 0.00179 µM | koff [13]: 0.00132 s⁻¹ | kon [13]: 737000 M⁻¹ s⁻¹ | EC50 [14]: 0.00022 µM | EC50 [15]: 0.00015 µM | inhibition ratio [16]: -0.09%
B5: MGA017 (antibody, from a related filing, V domains shown)
VH: EVQLVESGGGLVKPGGSLRLSCAASGFTFSSYGMSWVRQAPGKGLEWVATINSGGSNTYYPDSLKGRFTISRDNAKNSLYLQMNSLRAEDTAVYYCARHDGGAMDYWGQGTTVTVSS
VL: DIQMTQSPSSLSASVGDRVTITCRASESIYSYLAWYQQKPGKAPKLLVYNTKTLPEGVPSRFSGSGSGTDFTLTISSLQPEDFATYYCQHHYGTPPWTFGQGTRLEIK

EC50 [4]: 0.00019 µM | inhibition ratio [7]: -24.4% | inhibition ratio [9]: -32.6% | inhibition ratio [12]: -18.3% | inhibition ratio [16]: 90%
B6: 312E1E2 (antibody, V domains shown)
VH: QVQLQQSGPELVRPGVSVKISCKGSGYTFTDYAMHWVKQSHAKSLEWIGIVSTHYGNTNYNQNFKGKATMTVDKSSSTVYMELARLTSEDSAIYYCARSEGLRLDWFAHWGQGTLVTVSA
VL: DIQMTQSPASLSASVGEIVTITCRASENIYSYLAWYQQKQGKSPHLLVYNAKTLAEGVPSRFSGSGSGTQFSLKISRLQPEDFGSYYCQNHYVFPFTFGSGTKLEIK

inhibition ratio [7]: -3.53% | inhibition ratio [12]: 80.1% | Kd [13]: 0.00052 µM | koff [13]: 0.000862 s⁻¹ | kon [13]: 1.66e+06 M⁻¹ s⁻¹ | EC50 [15]: 0.0024 µM | inhibition ratio [16]: 5.92%
B7: AHP05564 (antibody, V domains shown)
VH: EVQLVETGGGVVQPGRSLRLSCAASGFTFSSSGMHWVRQAPGKGLEWVAVISYDVTNKYYVDSVKGRFTISRDNSENTLYLQMNSLRAEDTGVYYCVRDGGPRWLGWYFDLWGRGTLVTVSS
VL: NIQMTQSPSSQSASVGDRVTITCRANQAIANSLAWYQQKPGKAPKLLLFGTSLLHSGVPSRFSGSGSGTEYTLTISSLQPDDFGTYYCQQYFSFPRTFGQGTQVDVY

EC50 [4]: 0.0007 µM | inhibition ratio [7]: -22.4% | inhibition ratio [9]: 98.9% | inhibition ratio [12]: -8% | inhibition ratio [16]: -11.5%
B8: 429H9F10 (antibody, V domains shown)
VH: QIQLVQSGPELKKPGETVKISCKASGYTFTYYGLNWVKQAPGKGLRWMGWINTSSGVPTYADDFKGRFAISLESSASTVFLEISNLKNEDTAAYFCAKDDGYFYTMDHWGQGTSVTVSS
VL: B9 VL with S7P, T14S, P15L, E17D, P18Q, S32N, Q50K, A85T, V88L, H98Q

EC50 [8]: 0.00032 µM
B13: 72D1D11-z16 (antibody, V domains shown)
VH: B9 VH with V2I, R38K
VL: B9 VL

EC50 [8]: 0.00057 µM
B14: 72D1D11-z14 (antibody, V domains shown)
VH: B9 VH with V2I, R38K
VL: B9 VL with S7T

EC50 [8]: 0.00047 µM
B17: 72D1D11-z15 (antibody, V domains shown)
VH: B9 VH with V2I, R38K
VL: B9 VL with F92Y

EC50 [8]: 0.00036 µM
B20: 72D1D11-z13 (antibody, V domains shown)
VH: B9 VH with V2I, R38K
VL: B9 VL with S7T, F92Y

EC50 [3]: 0.00025 µM | inhibition ratio [7]: 90.6% | inhibition ratio [9]: 95.4% | inhibition ratio [12]: -6.3% | Kd [13]: 0.000196 µM | koff [13]: 0.000111 s⁻¹ | kon [13]: 567000 M⁻¹ s⁻¹ | EC50 [14]: 0.00017 µM | inhibition ratio [16]: -12.1%
B23: 81C8A1 (antibody, V domains shown)
VH: QVTLKESGPGILQPSQTLSLTCSFSGFSLSTSGMGVSWIRQPPGKGLEWLAHIYWDDDRRYNPSLKSRLTISRDTSRNQVFLQITTVDTADTATYYCARSPYGSEAYWGQGTLVIVSA
VL: QIVLSQSPTILSAFPGEKVTMTCRASSSVSFIQWYQQKSGSSPKPWIYSPSNLASGVPTRFSGSGSGTSYSLTIGRVEAEDAATYYCQQWSSYPWTFGGGTKVEIK
